The text below walks through data of article doi:10.1101/2021.12.22.473891 (bioRxiv, 2021).

In the test the target is recombinant human Top2a ΔC (1-1217), lacking the unstructured C-terminal domain (human, UniProt P11388 1-1217). The test can be described thus: native gel or EMSA. On the technique in general: In EMSA bound probe runs differently from free probe, usually more slowly.
Chain of recombinant human Top2a ΔC (1-1217), lacking the unstructured C-terminal domain (P11388 1-1217, stated change not applied): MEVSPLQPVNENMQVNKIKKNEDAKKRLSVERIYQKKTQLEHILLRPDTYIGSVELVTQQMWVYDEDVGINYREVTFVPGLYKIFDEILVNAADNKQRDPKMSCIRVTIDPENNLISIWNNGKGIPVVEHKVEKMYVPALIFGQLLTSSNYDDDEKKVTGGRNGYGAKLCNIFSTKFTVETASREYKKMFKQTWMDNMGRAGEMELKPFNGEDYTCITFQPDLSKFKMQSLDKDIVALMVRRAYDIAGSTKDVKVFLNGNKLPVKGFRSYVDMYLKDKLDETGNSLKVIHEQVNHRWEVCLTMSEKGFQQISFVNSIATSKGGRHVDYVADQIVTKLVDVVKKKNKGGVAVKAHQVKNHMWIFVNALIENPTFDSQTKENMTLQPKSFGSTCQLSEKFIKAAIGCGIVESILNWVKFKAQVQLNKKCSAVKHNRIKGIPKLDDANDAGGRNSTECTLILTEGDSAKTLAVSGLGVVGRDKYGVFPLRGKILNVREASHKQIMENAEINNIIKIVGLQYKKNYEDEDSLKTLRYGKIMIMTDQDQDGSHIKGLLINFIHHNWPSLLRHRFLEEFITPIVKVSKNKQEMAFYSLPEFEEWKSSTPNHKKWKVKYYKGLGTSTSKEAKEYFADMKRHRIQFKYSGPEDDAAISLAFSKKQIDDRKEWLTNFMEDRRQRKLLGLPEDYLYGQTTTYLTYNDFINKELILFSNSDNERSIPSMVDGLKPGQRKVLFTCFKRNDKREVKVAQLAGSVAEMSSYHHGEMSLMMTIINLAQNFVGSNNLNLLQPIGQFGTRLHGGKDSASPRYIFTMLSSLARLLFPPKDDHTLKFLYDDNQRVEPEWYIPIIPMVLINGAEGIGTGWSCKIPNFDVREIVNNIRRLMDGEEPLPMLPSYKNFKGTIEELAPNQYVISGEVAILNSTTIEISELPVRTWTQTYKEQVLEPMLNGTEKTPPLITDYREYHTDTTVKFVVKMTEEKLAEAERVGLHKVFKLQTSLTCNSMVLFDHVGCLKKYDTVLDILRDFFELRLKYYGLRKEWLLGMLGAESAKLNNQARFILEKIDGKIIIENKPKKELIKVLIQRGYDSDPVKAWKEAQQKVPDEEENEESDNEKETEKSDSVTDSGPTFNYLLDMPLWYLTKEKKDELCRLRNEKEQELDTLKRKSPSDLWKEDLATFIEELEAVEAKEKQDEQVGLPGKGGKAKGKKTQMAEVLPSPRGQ

B1: human dock II domain, full-length variant (RPA1^1060-1155) with C-terminal His-MBP-tag (domain or fragment)
chain: ADPKKALHHFRAIKKWQSKHPNTLLRRGAFLSYSQKIQEAVKALKLESENRNGRSPGTQEMLRMWYELDEESRRKYQKKAAACPDPSLSVWRPDIY
For B1, the binding result is recorded as “binds”.
